{
  "source": "patent US9766245B2",
  "about": "“Method of detecting cancer based on glycan biomarkers” (California Institute of Technology, priority 2013, dated 2017)",
  "molecules": {"B1": {"name": "NCAM: known Fucα(1-2)Gal glycoprotein in rat brain lysate (protein, UniProt P13596 20-858, looked up)", "Neural cell adhesion molecule …": "LQVDIVPSQGEISVGESKFFLCQVAGDAKDKDISWFSPNGEKLSPNQQRISVVWNDDDSSTLTIYNANIDDAGIYKCVVTAEDGTQSEATVNVKIFQKLMFKNAPTPQEFKEGEDAVIVCDVVSSLPPTIIWKHKGRDVILKKDVRFIVLSNNYLQIRGIKKTDEGTYRCEGRILARGEINFKDIQVIVNVPPTVQARQSIVNATANLGQSVTLVCDADGFPEPTMSWTKDGEPIENEEEDDEKHIFSDDSSELTIRNVDKNDEAEYVCIAENKAGEQDASIHLKVFAKPKITYVENQTAMELEEQVTLTCEASGDPIPSITWRTSTRNISSEEKASWTRPEKQETLDGHMVVRSHARVSSLTLKSIQYTDAGEYICTASNTIGQDSQSMYLEVQYAPKLQGPVAVYTWEGNQVNITCEVFAYPSATISWFRDGQLLPSSNYSNIKIYNTPSASYLEVTPDSENDFGNYNCTAVNRIGQESLEFILVQADTPSSPSIDRVEPYSSTAQVQFDEPEATGGVPILKYKAEWKSLGEEAWHSKWYDAKEANMEGIVTIMGLKPETRYAVRLAALNGKGLGEISAATEFKTQPVREPSAPKLEGQMGEDGNSIKVNLIKQDDGGSPIRHYLVKYRALASEWKPEIRLPSGSDHVMLKSLDWNAEYEVYVVAENQQGKSKAAHFVFRTSAQPTAIPANGSPTAGLSTGAIVGILIVIFVLLLVVMDITCYFLNKCGLLMCIAVNLCGKAGPGAKGKDMEEGKAAFSKDESKEPIVEVRTEEERTPNHDGGKHTEPNETTPLTEPEKGPVETKSEPQESEAKPAPTEVKTVPNEATQTKENESKA"}, "B2": {"name": "p44 MAPK: a protein that has not been shown to be fucosylated (protein, UniProt P21708 2-380, looked up)", "Mitogen-activated protein …": "AAAAAAPGGGGGEPRGTAGVVPVVPGEVEVVKGQPFDVGPRYTQLQYIGEGAYGMVSSAYDHVRKTRVAIKKISPFEHQTYCQRTLREIQILLRFRHENVIGIRDILRAPTLEAMRDVYIVQDLMETDLYKLLKSQQLSNDHICYFLYQILRGLKYIHSANVLHRDLKPSNLLINTTCDLKICDFGLARIADPEHDHTGFLTEYVATRWYRAPEIMLNSKGYTKSIDIWSVGCILAEMLSNRPIFPGKHYLDQLNHILGILGSPSQEDLNCIINMKARNYLQSLPSKTKVAWAKLFPKSDSKALDLLDRMLTFNPNKRITVEEALAHPYLEQYYDPTDEPVAEEPFTFDMELDDLPKERLKELIFQETARFQPGAPEAP"}},
  "key": {"[1]": {"molecular_target": "T1, BgtA (Helicobacter mustelae, UniProt D3UIY4)", "assay": "Kinetic analysis of BgtA with UDP-GalNAz and UDP-GalNAc", "assay_type": "biochemical", "conditions": "100 μM acceptor 1", "method": "(§1) Kinetic Analysis of BgtA with UDP-GalNAz and UDP-GalNAc.\n(§2) Reactions were performed in duplicate with 100 μM acceptor substrate (1), 0.7 μg BgtA, and varying concentrations of UDP-GalNAz or UDP-GalNAc (50 to 800 μM) in 20 mM Tris-HCl pH 7.5, 50 mM NaCl, 10 mM MnCl2 at rt in a total volume of 20 μL. Product formation was monitored at 280 nm by reverse phase-HPLC (Agilent 1100), and time points were taken over the course of 5 min using a linear, 3-95% gradient of B (A: 0.1% aqueous trifluoroacetic acid B: 0.1% trifluoroacetic acid in MeCN) over 8 min with a flow rate of 1 mL/min. The kinetic parameters, apparent Km, Vmax, and kcat, were obtained by linear regression analysis of initial velocity vs. donor substrate concentration using KaleidaGraph (version 4.1.2)."}, "[2]": {"molecular_target": "T1, BgtA", "assay": "BgtA activity assay monitored by LC-MS/MS", "assay_type": "biochemical", "conditions": "donor substrate, 12 h at 4° C.", "method": "BgtA Activity Assay and Monitoring of Chemoenzymatic Labeling Reactions by LC-MS/MS.\nThe Fucα(1-2)Gal substrate 1 (10 μM) was dissolved in 20 mM Tris.HCl pH 7.5, 50 mM NaCl, and 5 mM MnCl2. BgtA enzyme (Yi, W.; Shen, J.; Zhou, G.; Li, J.; Wang, P. G. J. Am. Chem. Soc. 2008, 130, 14420.) and UDP-ketoGal 3 (Khidekel, N.; Arndt, S.; Lamarre-Vincent, N.; Lippert, A.; Poulin-Kerstien, K. G.; Ramakrishnan, B.; Qasba, P. K.; Hsieh-Wilson, L. C. J. Am. Chem. Soc. 2003, 125, 16162.) or UDP-GalNAz 2 (Invitrogen) were added to final concentrations of 0.16 mg/mL and 50 μM, respectively, in a final volume of 100 μL. The reaction was incubated at 4° C. in the dark for 12-16 h, and the reaction progress was monitored by LC-MS/MS. To label with aminooxy-biotin 7, the reactions were diluted 5-fold with saturated urea, 2.7 M NaOAc pH 3.9 (50 mM final concentration and pH 4.8), and 7 (5 mM final concentration, Dojindo) and incubated for 20-24 h at rt. To label with ADIBO-biotin 6, 250 μM of 6 (Click Chemistry Tools) was added, and the reaction was incubated for 3 h at rt. […]"}, "[3]": {"tested_on": "[N-]=[N+]=NCC(=O)N[C@H]1[C@@H](OP(=O)(O)OP(=O)(O)OC[C@H]2O[C@@H](n3ccc(=O)[nH]c3=O)[C@H](O)[C@@H]2O)O[C@H](CO)[C@H](O)[C@@H]1O", "assay": "Kinetic analysis of BgtA with UDP-GalNAz and UDP-GalNAc", "assay_type": "biochemical, Helicobacter mustelae", "conditions": "other: donor substrate, 100 μM acceptor 1, donor 50 to 800 μM, rt; pH 7.5", "method": "as §1, §2"}, "[4]": {"tested_on": "CC(=O)N[C@H]1[C@@H](OP(=O)(O)OP(=O)(O)OC[C@H]2O[C@@H](n3ccc(=O)[nH]c3=O)[C@H](O)[C@@H]2O)O[C@H](CO)[C@H](O)[C@@H]1O", "assay": "Kinetic analysis of BgtA with UDP-GalNAz and UDP-GalNAc", "assay_type": "biochemical, Helicobacter mustelae", "conditions": "other: donor substrate, 100 μM acceptor 1, donor 50 to 800 μM, rt; pH 7.5", "method": "as §1, §2"}, "[5]": {"molecular_target": "T1, BgtA", "assay": "Chemoenzymatic labeling of cell lysates, streptavidin capture and Western blotting", "assay_type": "biochemical", "conditions": "rat brain (olfactory bulb) lysates, BgtA + UDP-GalNAz, alkyne-biotin 11, streptavidin capture, immunoblot; in the presence but not absence of BgtA"}, "[6]": {"molecular_target": "T1, BgtA", "assay": "Chemoenzymatic labeling on the glycan array", "assay_type": "biochemical", "conditions": "0.5, 2 and 12 h, rt; ADIBO-biotin, Cy5-streptavidin; labeled if 12 h signal minus background >1000 relative fluorescence units", "method": "Chemoenzymatic Labeling on the Glycan Array.\nGlycan Array version 5.0 was provided by the Consortium for Functional Glycomics (CFG). Pre-equilibrated arrays were treated with BgtA enzyme (0.16 mg/mL) and 500 μM UDP-GalNAz 2 in 20 mM Tris.HCl pH 7.4, 50 mM NaCl, 2 mM MnCl2 containing 1% bovine serum albumin (BSA) for various times (0, 0.5, 2, and 12 h) at rt, washed 4 times with wash buffer (20 mM Tris.HCl pH 7.4, 50 mM NaCl, 0.1% Triton X-100) and then 4 times with rinse buffer (20 mM Tris.HCl pH 7.4, 50 mM NaCl). The arrays were then incubated with ADIBO-biotin (5 μM) in 20 mM Tris.HCl pH 7.4, 50 mM NaCl for 2 h at rt. […] The arrays were then washed 4 times with wash buffer (containing 0.05% Tween-20 instead of 0.1% Triton X-100), 4 times with rinse buffer, 4 times with water, dried under a low stream of filtered air, and scanned using a PerkinElmer ScanArray Express fluorescence scanner and ImaGene data analysis software (BioDiscovery). Data were analyzed per the guidelines of the CFG. […] Because background fluorescence can be heterogeneous across the array, each array was divided into areas of 10 by 10 spots, or sub-arrays, and a background fluorescence value was calculated within each sub-array by the software. This value was then subtracted from the fluorescence signal for each glycan spot within the sub-array by the software. […]"}, "[7]": {"molecular_target": "T1, BgtA", "assay": "BgtA labeling of Galβ(1-4)GlcNAc-pNP in solution", "assay_type": "biochemical", "conditions": "2 h, 25° C."}},
  "data": [
    {"molecule": "[N-]=[N+]=NCC(=O)N[C@H]1[C@@H](OP(=O)(O)OP(=O)(O)OC[C@H]2O[C@@H](n3ccc(=O)[nH]c3=O)[C@H](O)[C@@H]2O)O[C@H](CO)[C@H](O)[C@@H]1O", "note": "[UDP-GalNAz, UDP-N-azidoacetylgalactosamine]", "values": [
      {"measurement": "kcat/Km fold lower than natural UDP-GalNAc substrate", "setting": "[1]", "result": "approximately 7 fold"},
      {"measurement": "conversion of substrate 1 to the desired product with BgtA", "setting": "[2]", "result": "complete conversion"}
    ]},
    {"molecule": "BgtA (Helicobacter mustelae 12198)", "values": [
      {"measurement": "Km", "setting": "[3]", "result": "168 ± 55", "unit": "µM"},
      {"measurement": "Vmax", "setting": "[3]", "result": "0.020 ± 0.002", "unit": "nmol/min"},
      {"measurement": "Km", "setting": "[4]", "result": "127 ± 36", "unit": "µM"},
      {"measurement": "Vmax", "setting": "[4]", "result": "0.100 ± 0.010", "unit": "nmol/min"}
    ]},
    {"molecule": "synapsin I: known Fucα(1-2)Gal glycoprotein in rat brain lysate", "values": [
      {"measurement": "chemoenzymatic labeling and detection of glycoprotein", "setting": "[5]", "result": "chemoenzymatically labeled and detected"}
    ]},
    {"molecule": "CC(=O)N[C@@H]1[C@@H](O[C@@H]2O[C@H](CO)[C@H](O)[C@H](O)[C@H]2O[C@@H]2O[C@@H](C)[C@@H](O)[C@@H](O)[C@@H]2O)[C@H](O[C@@H]2O[C@@H](C)[C@@H](O)[C@@H](O)[C@@H]2O)[C@@H](CO)O[C@H]1O", "note": "[Glycan 61]", "values": [
      {"measurement": "labeling of glycan by BgtA and UDP-GalNAz on microarray", "setting": "[6]", "result": "weak labeling"}
    ]},
    {"molecule": "UDP-2-deoxy-2-(acetonyl)-β-D-galactopyranoside [UDP-ketoGal]", "values": [
      {"measurement": "conversion of substrate 1 to the desired product with BgtA", "setting": "[2]", "result": "complete conversion"}
    ]},
    {"molecule": "CC(=O)N[C@H]1[C@H](Oc2ccc([N+](=O)[O-])cc2)O[C@H](CO)[C@@H](O[C@@H]2O[C@H](CO)[C@H](O)[C@H](O)[C@H]2O)[C@@H]1O", "note": "[Galβ(1-4)GlcNAc-pNP, p-nitrophenyl 2-acetamido-2-deoxy-4-O-(β-D-galactopyranosyl)-β-D-glucopyranoside]", "values": [
      {"measurement": "labeling by BgtA in solution", "setting": "[7]", "result": "failed to label"}
    ]},
    {"molecule": "CC(=O)N[C@H]1[C@@H](OP(=O)(O)OP(=O)(O)OC[C@H]2O[C@@H](n3ccc(=O)[nH]c3=O)[C@H](O)[C@@H]2O)O[C@H](CO)[C@H](O)[C@@H]1O", "note": "[UDP-GalNAc]", "values": [
      {"measurement": "Vmax fold higher than that of UDP-GalNAz", "setting": "[1]", "result": "approximately 5 fold"}
    ]},
    {"molecule": "B1", "values": [
      {"measurement": "chemoenzymatic labeling and detection of glycoprotein", "setting": "[5]", "result": "chemoenzymatically labeled and detected"}
    ]},
    {"molecule": "B2", "values": [
      {"measurement": "chemoenzymatic labeling and detection of glycoprotein", "setting": "[5]", "result": "not detected"}
    ]}
  ]
}
